Measurements taken from FireProtDB (doi:10.1073/pnas.0911904107).

Conditions: Escherichia coli (strain K12), pH 8, 25 °C, Urea, CD, whole UniProt chain shown
[1] = Sodium phosphate 50 mM, reversible: Yes
[2] = sodium phosphate buffer, transition: 2, reversible: yes

B1: Lipid A palmitoyltransferase PagP wild type, P37001 (protein)
chain: MNVSKYVAIFSFVFIQLISVGKVFANADEWMTTFRENIAQTWQQPEHYDLYIPAITWHARFAYDKEKTDRYNERPWGGGFGLSRWDEKGNWHGLYAMAFKDSWNKWEPIAGYGWESTWRPLADENFHLGLGFTAGVTARDNWNYIPLPVLLPLASVGYGPVTFQMTYIPGTYNNGNVYFAWMRFQF
For B1, the denaturant m value [1] was 1.64 kcal/mol/M, the “denaturant midpoint (higher = more stable)” value [1] was 8.77 M and the unfolding free energy [1] was 60.2 kJ/mol. The “denaturant midpoint (higher = more stable)” value [2] was 8.77 M and the unfolding free energy [2] was 60.2 kJ/mol.
